Results taken from paper doi:10.1101/2024.08.29.610253.

Key:
[1] = biological target: interface II mutations (CC2N and C2B variants, ITC); assay: ITC
[2] = biological target: liprin-α2_CC2N E380R (human) (UniProt O75334); assay: ITC
RIM1_C2B (rat) = assay: SEC-MALS

Sequence of liprin-α2_CC2N E380R (human) (O75334 300-404 E380R): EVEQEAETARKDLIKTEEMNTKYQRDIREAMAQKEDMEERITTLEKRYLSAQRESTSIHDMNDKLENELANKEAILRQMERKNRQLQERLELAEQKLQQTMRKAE

RIM1_C2B (domain or fragment)
fold decrease in binding affinity [1]: 5 fold | fold decrease in binding affinity [2]: 2 fold | stoichiometry N (RIM1_C2B (rat)): 2
